Test results as given in patent EP1870419A2 (Praecis Pharmaceuticals Incorporated, dated 2000).
Square brackets hold non-standard residues; d marks the D form. dPhe(4-F) = N[C@H](Cc1ccc(F)cc1)C(=O)O

These binders were tested against T1, Aβ1-40 peptide (natural β-amyloid peptide, β-AP1-40) (In the fibril binding assay the peptide stood as aged fibrils (many copies, number not stated). In the nucleation assay [CUT]) (assay: cell-based or functional assay).

{N,N‑dimethyl}-G[dA][dF][dF][dV][dL]-NH2 (also: TFA salt) [PPI 803: TFA·N,N-dimethyl-(Gaffvl)-NH2] was tested. Which “Nucleation assay Δlag, 1.25 µM compound” value did it give?
The value was < 1 fold of control lag time.

And the “Nucleation assay Δlag, 2.5 µM compound” value?
Its value is < 1 fold of control lag time.

What about the “Nucleation assay Δlag, 5 µM compound” value of the same binder?
The value was < 1 fold of control lag time.

Which results are given for {N,N‑diethyl}-[dA][dF][dF][dV][dL]-NH2 (also: TFA salt) [PPI 1006: TFA·N,N-diethyl-(affvl)-NH,]?
Nucleation assay Δlag, 1.25 µM compound: 1 fold of control lag time; Nucleation assay Δlag, 2.5 µM compound: 1 fold of control lag time; Nucleation assay Δlag, 5 µM compound: 1 fold of control lag time

{N,N‑diethyl}-G[dA][dF][dF][dV][dL]-NH2 (also: TFA salt) [PPI 1005: TFA·N,N-diethyl-(Gaffvl)-NH2] was tested. Which “Nucleation assay Δlag, 1.25 µM compound” value did it give?
Its value is 1 fold of control lag time.

And the “Nucleation assay Δlag, 2.5 µM compound” value?
The value was 3 fold of control lag time.

What about the “Nucleation assay Δlag, 5 µM compound” value of the same binder?
The value was 3 fold of control lag time.

What does the source list for H-[dL][dV][dF][dF][dA]-NMe2 (also: TFA salt) [PPI 993: TFA·H-(lvffa)-dimethylamide]?
Nucleation assay Δlag, 1.25 µM compound: 1 fold of control lag time; Nucleation assay Δlag, 2.5 µM compound: 1 fold of control lag time; Nucleation assay Δlag, 5 µM compound: 1 fold of control lag time

Which “Nucleation assay Δlag, 1.25 µM compound” value does the source give for {N‑methyl}-G[dA][dF][dF][dV][dL]-NH2 (also: TFA salt) [PPI 968: TFA·N-methyl-(Gaffvl)-NH2] here?
The value was 2 fold of control lag time.

What about the “Nucleation assay Δlag, 2.5 µM compound” value of the same binder?
The value was > 5 fold of control lag time.

What about the “Nucleation assay Δlag, 5 µM compound” value of the same binder?
The value was > 5 fold of control lag time.

How did the “Nucleation assay Δlag, 1.25 µM compound” value turn out when {N‑isopropyl}-G[dA][dF][dF][dV][dL]-NH2 (also: TFA salt) [PPI 970: TFA·N-isopropyl-(Gaffvl)-NH2] was run?
The value was 1 fold of control lag time.

And the “Nucleation assay Δlag, 2.5 µM compound” value?
The value was > 5 fold of control lag time.

And the “Nucleation assay Δlag, 5 µM compound” value?
The value was > 5 fold of control lag time.

Which results are given for {N,N‑dimethyl}-[dA][dF][dF][dV][dL]-NH2 (also: TFA salt) [PPI 913: TFA·N,N-dimethyl-(affvl)-NH2]?
Nucleation assay Δlag, 1.25 µM compound: 1 fold of control lag time; Nucleation assay Δlag, 2.5 µM compound: 1 fold of control lag time; Nucleation assay Δlag, 5 µM compound: 1 fold of control lag time

Molecular target: T1, Aβ1-40 peptide (natural β-amyloid …)
Assay: cell-based or functional assay
Remark: another data set of the same source

What does the source list for H-[dL][dF][dK][dV][dL]-NH2 (also: TFA salt) [PPI 1321: 2TFA·H-(lfkvl)-NH2]?
Nucleation assay data (Δlag), 0.3 µM compound: < 1 fold of control lag time; Nucleation assay data (Δlag), 1 µM compound: < 1 fold of control lag time; Nucleation assay data (Δlag), 3 µM compound: < 1 fold of control lag time

With H-[dL][dF][dPhe(4-F)][dV][dL]-NH2 (also: TFA salt) [PPI-1319: TFA·H-(lf-[p-F]f-vl)-NH2] as the binder, how does the “Nucleation assay data (Δlag), 0.3 µM compound” value read?
Its value is 1 fold of control lag time.

What about the “Nucleation assay data (Δlag), 1 µM compound” value of the same binder?
The value was > 5 fold of control lag time.

And the “Nucleation assay data (Δlag), 3 µM compound” value?
Its value is > 5 fold of control lag time.
